Experimental data as given in patent US20200113912A1, “Methods and Compositions for the Treatment of Disease with Immune Stimulatory Conjugates” (Silverback Therapeutics, Inc., priority 2018, published 2020).

Legend:
[1] = Repeat-dose intravenous administration in cynomolgus monkey; assay type: in vivo
Protocol: The monkey used in this study was purpose-bred, treatment-naïve, and housed and treated at Charles River Laboratories in Reno, Nev., in accordance with US FDA GLP regulations. The target age and weight of the animal at time of dosing was 2 to 4 years and 2.5 to 3.5 kg, respectively, and the animal used on study was female. HER2-TLR8 was evaluated on a repeat dose schedule as follows: 1 mg/kg was dosed on Day 1, followed by a 7.5 mg/kg dose administered one week later on Day 8 and a third 7.5 mg/kg dose administered three weeks later on Day 29. After each dose, the animal was observed cage-side for clinical signs and symptoms associated with dosing. […] This animal was euthanized due to the rapid onset of clinical signs of pale mucus membranes and face, hunched posture, decreased activity, hypothermia (as assessed by being cool to the touch), and labored, shallow breathing. These clinical signs presented within 2.5 hour following dosing on Day 29.

C-reactive protein (CRP) = assay: Pharmacodynamic response (CRP) after repeat SC dosing in non-human primates; assay type: in vivo, cynomolgus monkey; details: repeat-dose SC, 2, 6 and 12 mg/kg
Text: Blood samples were collected by venous puncture at various timepoints and analyzed for blood chemistries, including C-reactive protein (CRP), using a standard blood analyzer.

[2] = Repeat-dose subcutaneous administration in cynomolgus monkey; assay type: in vivo; details: SC
Protocol: The monkey used in this study was purpose-bred, treatment-naïve, and housed and treated at Charles River Laboratories in Reno, Nev., in accordance with US FDA GLP regulations. The target age and weight of the animal at time of dosing was 2 to 4 years and 2.5 to 3.5 kg, respectively, and the animal used on study was female. HER2-TLR8 was evaluated on a repeat dose schedule as follows: 2 mg/kg dose was subcutaneously administered on a Q2W dosing schedule over 4 dosing cycles, 6 mg/kg was subcutaneously administered on a Q3W dosing schedule over 4 dosing cycles and 12 mg/kg was subcutaneously administered on a Q3W dosing schedule over 4 dosing cycles. After each dose, the animal was observed cage-side for clinical signs and symptoms associated with dosing.

[3] = Single-dose pharmacokinetic profile in cynomolgus monkey (serum ELISA); assay type: in vivo
Protocol: The pharmacokinetic profile of a single dose of HER2-TLR8 administered subcutaneously at 2, 6, or 12 mg/kg or intravenously at 7.5 mg/kg in cynomolgus monkey was studied. Blood was collected by venous puncture at a series of timepoints pre and post-dosing. Serum was prepared and HER2-TLR8 was measured by an ELISA assay in which serum samples were added to an assay plate coated with recombinant HER2 and HER2-TLR8 was detected using a labelled antibody directed against the TLR8 payload.

[4] = tested on: BMDM + MDA-MB-468 (HER2neg); assay: mTNFα from bone marrow derived macrophages co-cultured with MDA-MB-468; assay type: cell-based, mouse; details: 24 hours; conjugate 100-0.001 nM, payload 1000-0.001 nM; HER2neg MDA-MB-468
Protocol: (§1) The ability of an anti-HER2-TLR7 conjugate to specifically activate mouse macrophages when bound to tumor cells by HER2 was assessed in vitro as follows. Bone marrow cells were harvested from BALB/cJ mouse femurs and tibias using a 27-gauge needle attached to a 3 mL syringe filled with growth media (DMEM supplemented with 10% Fetal Bovine Serum, 1 mM Sodium Pyruvate, 1× GlutaMAX-1, 1× Non-Essential Amino Acids, 10 mM HEPES and 0.5% Penicillin/Streptomycin). Bone marrow cells were centrifuged, and RBC were lysed before being counted and resuspended at a concentration 5×10^5/mL in growth media. Ten mL of cell suspension was placed in 10 cm dishes and 20 ng/mL murine macrophage-colony-stimulating factor (mM-CSF) was added. […] Bone marrow derived macrophage cells lines (BMDM) and tumor cell lines SK-BR-3 (HER2pos) or MDA-MB-468 (HER2neg) were removed from plates with Accutase cell detachment solution and counted. […]
(§2) After culture, supernatants were collected and frozen at −80° C. until cytokine analysis was performed. Murine TNFα (mTNFα) levels in the supernatant were determined by mTNFα ELISA Kit (BioLegend) and read on an Envision Plate Reader (Perkin Elmer, Waltham, Mass.) according to manufacturer's instructions. mTNFα levels were then graphed using GraphPad Prism 7.01 software (GraphPad Software, San Diego, Calif.) and EC50 values were generated using non-linear regression curve fit.

BMDM + SK-BR-3 (HER2pos) = assay: mTNFα from bone marrow derived macrophages co-cultured with SK-BR-3; assay type: cell-based, mouse; details: 24 hours; conjugate 100-0.001 nM, payload 1000-0.001 nM; HER2pos SK-BR-3
Protocol: as §1, §2

[5] = 10 μg per mouse, 5 minutes following second dose of HER2-TLR7 5 mg/kg
Protocol: Rectal temperatures and clinical scores were assessed as previously shown.

SMILES: CCCN(CCC)C(=O)C1=Cc2ccc(C(=O)Nc3cnc4c(c3)CN(C(=O)OCc3ccc(NC(=O)[C@H](CCCNC(N)=O)NC(=O)[C@@H](NC(=O)CCCCCN5C(=O)C=CC5=O)C(C)C)cc3)CC4)cc2N=C(N)C1 [HER2-TLR8]
- anaphylaxis-like response after the first two doses ([1]; IV bolus, 1 mg/kg Day 1 and 7.5 mg/kg Day 8): did not produce an anaphylaxis-like response
- outcome of the third intravenous dose ([1]; IV bolus, 7.5 mg/kg Day 29): resulted in mortality
- time to presentation of clinical signs following dosing ([1]; third IV dose, 7.5 mg/kg Day 29): ≤ 2.5 h
- C-reactive protein (CRP) in blood (C-reactive protein (CRP)): consistent, modest elevation of C-reactive protein (CRP) with each dosing cycle
- tolerability ([2]; 2 mg/kg Q2W, 6 mg/kg Q3W, 12 mg/kg Q3W, 4 dosing cycles): well-tolerated at all dose levels and through all dosing cycles
- clinical anaphylaxis-like signs or symptoms ([2]; first or repeat dose at any dose level (2, 6, 12 mg/kg)): No clinical, anaphylaxis-like signs or symptoms were observed
- AUC ([3]; 7.5 mg/kg, IV, 7.5 mpk): 3770 µg·h/mL
- AUC ([3]; subcutaneous, 2 mg/kg, SubC, 2 mpk): 714 µg·h/mL
- AUC ([3]; subcutaneous, 6 mg/kg, SubC, 6 mpk): 2400 µg·h/mL
- AUC ([3]; subcutaneous, 12 mg/kg, SubC, 12 mpk): 3650 µg·h/mL

SMILES: CCOCc1nc2c(N)nc3ccccc3c2n1CC(C)(C)OCCNC(=O)C(C)(C)N [TLR7 payload compound]
- activation of macrophages (mTNFα in supernatant) [4]: capable of potently activating the macrophages in the presence of both cell lines
- activation of macrophages (mTNFα in supernatant) (BMDM + SK-BR-3 (HER2pos)): capable of potently activating the macrophages in the presence of both cell lines

SMILES: CNC[C@H](O)c1ccc(O)c(O)c1 [epinephrine]
- effect on toxicity of second IV dose of HER2-TLR7 [5]: mitigates the toxicity
